From US20240390509A1, “ANTIBODY-DRUG CONJUGATE, PREPARATION METHOD THEREFOR, AND PHARMACEUTICAL USE THEREOF” (SHANGHAI HANSOH BIOMEDICAL CO., LTD., priority 2021, published 2024)

B1: DS-1062-compound D (y = 4) (conjugate, chains of the INN, looked up)
VH: QVQLVQSGAEVKKPGASVKVSCKASGYTFTTAGMQWVRQAPGQGLEWMGWINTHSGVPKYAEDFKGRVTISADTSTSTAYLQLSSLKSEDTAVYYCARSGFGSSYWYFDVWGQGTLVTVSS
VL: DIQMTQSPSSLSASVGDRVTITCKASQDVSTAVAWYQQKPGKAPKLLIYSASYRYTGVPSRFSGSGSGTDFTLTISSLQPEDFAVYYCQQHYITPLTFGQGTKLEIK
modifications: compound D drug conjugate
B2: DS-1062 (conjugate, chains of the INN, looked up)
VH: B1 VH
VL: B1 VL
modifications: deruxtecan payload

Key:
Design in all cases: species or system nude mice (Balb/c Nude)
[1] = system: human gastric cancer NCI-N87 tumor cell transplant mouse model; experiment: Dose-dependent in vivo anti-tumor effect, NCI-N87 transplant mouse model (Example 11); conditions: NCI-N87 xenograft, 1 mg/kg IV Q2W, day 28
Experimental: In order to further study the inhibitory effect of antibody-drug conjugate on tumors formed in vivo, the Trop-2 positive tumor cell human gastric cancer NCI-N87 tumor cell transplant mouse model was used to evaluate the inhibitory effect of candidate molecule on tumor proliferation in vivo. 5×10^6 NCI-N87 cells were injected subcutaneously into 6-week-old nude mice (Balb/c Nude) weighing about […]. After 8 days, the average tumor volume reached 175 mm^3 and grouping was performed, and the antibody-drug conjugate was started to be injected intravenously every 2 weeks at a dose of 2 mg/kg or 1 mg/kg. The control used human IgGI isotype control antibody at a dose of 2 mg/kg. There were 5 mice in each group of the control group or the administration group. The tumor inhibition rate was calculated by measuring the tumor volume.

[2] = system: human head and neck cancer squamous cell carcinoma FaDu tumor cell transplant mouse model; experiment: In vivo efficacy, FaDu transplant mouse model; conditions: FaDu xenograft, day 17
Experimental: In order to further study the inhibitory effect of antibody-drug conjugate on tumors formed in vivo, the Trop-2 positive tumor cell human head and neck cancer squamous cell carcinoma FaDu tumor cell transplant mouse model was used to evaluate the inhibitory effect of candidate molecule on tumor proliferation in vivo. The cell suspension mixed with Matrigel in equal proportions was added, and 5×10^6 FaDu cells per animal were injected subcutaneously into 6-week-old nude mice (Balb/c Nude) weighing about […]. After 8 days, the average tumor volume reached 133 mm^3 and grouping was performed, and the antibody-drug conjugate was started to be injected intravenously at a single dose of 3 mg/kg or 1 mg/kg. The control used human IgGI isotype control antibody at a dose of 3 mg/kg. There were 5 mice in each group of the control group or the administration group. The tumor inhibition rate was calculated by measuring the tumor volume.

[3] = system: lung cancer Calu-3 tumor cell transplant mouse model; experiment: In vivo efficacy, Calu-3 transplant mouse model; conditions: Calu-3 xenograft, 10 mg/kg IV single dose, day 21
Experimental: In order to further study the inhibitory effect of antibody-drug conjugate on tumors formed in vivo, the Trop-2 positive tumor cell lung cancer Calu-3 tumor cell transplant mouse model was used to evaluate the inhibitory effect of candidate molecule on tumor proliferation in vivo. The cell suspension mixed with Matrigel in equal proportions was added, and 2×10^6 Calu-3 cells per animal were injected subcutaneously into 6-week-old nude mice (Balb/c Nude) weighing about […]. After 8 days, the average tumor volume reached 148 mm^3 and grouping was performed, and the antibody-drug conjugate was started to be injected intravenously at a single dose of 10 mg/kg. The control used human IgG1 isotype control antibody at a dose of 10 mg/kg. There were 5 mice in each group of the control group or the administration group. The tumor inhibition rate was calculated by measuring the tumor volume.

| Molecule | Tumor inhibition rate [1] [%] | Tumor inhibition rate ([2]; 1 mg/kg IV single dose) [%] | Tumor inhibition rate ([2]; 3 mg/kg IV single dose) [%] | Tumor inhibition rate [3] [%] |
| --- | --- | --- | --- | --- |
| B1 | 78.2 | – | – | – |
| B2 | – | 74.8 | 200 | 85.61 |
